What all share (assay): cell_activity
Data set [1] deals with TaGliadin_T03.1 TALE nuclease pair. The conditions noted are these: wheat protoplasts; also 0.00 for all treatments in TABLE 7.
Data set [2] deals with TaGliadin_T02.1 TALE nuclease pair. The following applies: wheat protoplasts; TABLE 7: 0.00 nuclease only, 2.43 with TREX, 5.33 with 5-azacytidine, 0.00 with trichostatin A.
In data set [3] the test system is TaGliadin_T01.1 TALE nuclease pair. The conditions noted are these: wheat protoplasts, nuclease only; 0.325% in TABLE 6; 2.40 with TREX, 1.29 with 5-azacytidine, 0.90 with trichostatin A.

In data set [1], “TCAGCAACAGCCACAAGAGCAAGTTCCATTGGTGCAACAACAACAATTTCCA (double strand) [TaGliadin_T03.1 target]” gave an activity (% mutation frequency) of 0.
Regarding “TCTCATCCTTGCCCTCCTTGCTATCGTGGCGACCACCGCCACAACTGCA (double strand) [TaGliadin_T02.1 target]”, the activity (% mutation frequency) in data set [2] came out at 0.746.
As to “TTAGAGTTCCAGTGCCACAATTGCAGCCACAAAATCCATCTCAGCAACA (double strand) [TaGliadin_T01.1 target]”, the activity (% mutation frequency) in data set [3] was found to be 1.57.
